Assay: soluble on expression in E. coli; label from the status in PepcDB or PDB records

## AEPAGRQRPRREPEAMDEQSVESIAEVFRCFICMEKLRDARLCPHCSKLCCFSCIRRWLTEQRAQCPHCRAPLQLRELVNCRWAEEVTQQLDTLQLCSLTKHEENEKDKCENHHEKLSVFCWTCKKCICHQCALWGGMHGGHTFKPLAEIYEQHVTKVNEEVAKLRRRLMELISLVQEVERNVEAVRNAKDERVREIRNAVEMMIARLDTQLKNKLITLMGQKTSLTQETELLESLLQEVEHQLRSCSKSELISKSSEILMMFQQVHRKPMASFVTTPVPPDFTSELVPSYDSATFVLENFSTLRQRADPVYSPPLQVSGLCWRLKVYPDGNGVVRGYYLSVFLELSAGLPETSKYEYRVEMVHQSCNDPTKNIIREFASDFEVGECWGYNRFFRLDLLANEGYLNPQNDTVILRFQVRSPTFFQKSRDQHWYITQLEAAQTSYIQQINNLKERLTIELSRTQKSRDLSPPDNHLSPQNDDALETRAKKSACSDMLLEGGPTTASVREAKEDEEDEEKIQNEDYHHELSDGDLDLDLVYEDEVNQLDGSSSSASSTATSNTEENDIDEETMSGENDVEYNNMELEEGELMEDAAAAGPAGSSHGYVGSSSRISRRTHLCSAATSSLLDIDPLILIHLLDLKDRSSIENLWGLQPRPPASLLQPTASYSRKDKDQRKQQAMWRVPSDLKMLKRLKTQMAEVRCMKTDVKNTLSEIKSSSAASGDMQTSLFSADQAALAACGTENSGRLQDLGMELLAKSSVANCYIRNSTNKKSNSPKPARSSVAGSLSLRRAVDPGENSRSKGDCQTLSEGSPGSSQSGSRHSSPRALIHGSIGDILPKTEDRQCKALDSDAVVVAVFSGLPAVEKRRKMVTLGANAKGGHLEGLQMTDLENNSETGELQPVLPEGASAAPEEGMSSDSDIECDTENEEQEEHTSVGGFHDSFMVMTQPPDEDTHSSFPDGEQIGPEDLSFNTDENSGR
  soluble on expression in E. coli: soluble

## MGSDKIHHHHHHMPRSARIDIPNLLQHVIVRGIERRDIFLSDDDRWDFRNRLQKLLLEMDVDCLAWSLMSNHFHLLLRPTRTPLAPFMRRLLTGYAVSFNLRHNRSGHLFQNRYKSIVCDEDSYLLELVRYIHLNPLRAGIVADLGALDTFPWSGHAMLMGKIVLEGQGINEVLRYFGPGVSASRRTYREFMADGVLQGERPDLVGKRSGASGGGCPASDRRILGDENFVEQLKTEECLHQQLRRPMSIESIVATIADQYGVAPKAIASKSRLPRTLDARAVVCYTAVEEGHTGAEVGRVLGMTRSGVAIARRRGEEVLARIESTAEFQHDTRLDSTN
  soluble on expression in E. coli: not soluble

## MTPYMANTKWVDGSVRSDFPQEKMARLYNLNYTIASQVNPHVVPFMQSDASRYRKDILSWPQRILRRQGKVISLGIMDFTRERLGNVPPVRRLLDHGYGIVGQRYYGDVNIIAPFNLRQYAYMLQNPRPHLFKLLQQQGERATLEHHHHHH
  soluble on expression in E. coli: not soluble

## MQKYTIVDLNEKAEAELAAIAGELGIANAGSMPKQELIYKILDEQAISVAGVRKEKQKTTEDRHTERRKPGRPRKNAEEEAPESEDVAAAPAEPNDEEAQAKRKRGRPRKAAEEIAEETREDVQQLVALAAAEETNATEKESAGRKPAAKTSTASPAKAPAKALPRPAETTPRVAPSPPPTTPVSEPAKDDAKPETPAPPPAIESITTTPAAGAVDEGGARRLVFRHKNSSSVLDQVLPYSSPQPPQRPKPAGAPVGSSPIRQRQAAGVPTPRREPQQPLYNFDGILECM
  soluble on expression in E. coli: not soluble

## MESDPMFIGFGYDRHPLVEGRRLVLAGVEIDAPLGSLGHSDGDVLSHAIIDALLGAGCLGDIGTWFPETKEYKDANSLDLLKETVKILEERGFSVVNVDATVVASIVKLSPYREKIVENLKSALETSRVNVKFKSGNTLGFEGEERGISAYAVCLVEEKGCTKST
  soluble on expression in E. coli: not soluble

## MNKLRKTIGRLEVKCKNADAGCIVTCPLAHRKGHQDSCPFELTACPNEGCTSQVPRGTLAEHRQHCQQGSQQRCPLGCGATLDPAERARHNCYRELHNAWSVRQERRRPLLLSLLRRVRWLDQATSVVRRELAELSNFLEEDTALLEGAPQEEAEAAPEGNVGAEVVGEPRANIPCK
  soluble on expression in E. coli: soluble

## MTLTKGSFTYSSGEEYRGEWKEGRRHGFGQLVFADGGTYLGHFENGLFNGFGVLTFSDGSRYEGEFSQGKFNGVGVFIRYDNMTFEGEFKNGRVDGFGLLTFPDGSHGIPRNEGLFENNKLLRREKCSAVVQRAQSASKSARNLTA
  soluble on expression in E. coli: soluble

## QTNNDEELQDMSDPLAVYTQAGFGITDKGANIKIGQTYQSSQPGTMAMNIIEMKGIGGELFGIRDNDDPMYANVDDSIDSFRLRNFQVEVAKGLGRQLDVNYDVDNDKLDASYSFIQGLPK
  soluble on expression in E. coli: not soluble

## MLFDHLRDEVMRLDAGITQEVLKLYIAFKAETNFVDVVPQKSRLRLSLNMQFHELVDPKGIAKDVTNVGRWGNGDVEIGFSDLAQLPYIMGLIRQAFEKQMESALV
  soluble on expression in E. coli: not soluble

## MIKHLFIDLDDTLWDTYHNNKSSLEELYHTHAWDRYFDSFETFFSIYLPHNEALWSEYRYGQIDKPTLTLERFRRPFTGYLTLSDEQILAWNAEFLSITGRKTRLCPHALEVMEYLHRYYKVYILSNGFREIQHAKLTNSGLAPYIDRVILSEDAGINKPNKKIFDFALVKAKARKTESIMIGDSWEADIVGAANAGLASVWYNPNRHILPDDGVRAPMHIISSLSELMQIF
  soluble on expression in E. coli: not soluble

## MDRMKIEAVIFDWAGTTVDYGCFAPLEVFMEIFHKRGVAITAEEARKPMGLLKIDHVRALTEMPRIASEWNRVFRQLPTEADIQEMYEEFEEILFAILPRYASPINAVKEVIASLRERGIKIGSTTGYTREMMDIVAKEAALQGYKPDFLVTPDDVPAGRPYPWMCYKNAMELGVYPMNHMIKVGDTVSDMKEGRNAGMWTVGVILGSSELGLTEEEVENMDSVELREKIEVVRNRFVENGAHFTIETMQELESVMEHIEKQELIIS
  soluble on expression in E. coli: soluble

## NVVETKALFVSTNDLARRLQKLNNEQKIQSNRLKTTIENIPSAILMIDRNGKIVVANKAYYEQFNISHNIEQVGYHGYVNTEIEQLILESFKVEKPIYEQLEVAINQVHAKYFDISCVPILTRSQKSLQGILVVMHD
  soluble on expression in E. coli: not soluble

## MSSAENIKESGKAKKQKNGNKNNNKKPSAEAIPLKNSPRNKLKKRGSMEQLSEQISEVFTIEMNNDQATVEEPTDTTVRINPADPSSPKVSTSEPKVTVPEPPPTHYAPVVVFIDHLSWPIFLHFVIVNRNMIITKVGRSFLTSLMPGDQISGVDSTPIWCIEDLEHEIQSKPARSVNLTVNRVWNIKCLTNIQLERILPQTDERLQYFMVHVYCSNGTGGLKLYSDKKRVLVQHIRAKTPICHALLVGDQILAINDEFLIGKPKKSLRRHAYDSIKKSFKTKGFAEIIACRPIGARSSPAPSVDAELSGKFANYACGVEKGNKLERKVTDETNNLPLEADALEIALRELTFLQQWVKQDFEEAPCEKGKSLLILKPPFENAKPYEYPPFVVNHQTQLVSAKALSSPVTNTPVAHSPPQALPNKTIIVPVGSTSSVLVPSTTSNALPPVLSLNSQSLSVKTLSMAPQVSQVEPPTSVMNGPTEAADLHVAVPPSPNTPRKRSIFKYKQEKGQTPEHQTTISFVEQPETSKITSDISEDEELKKCDPRSGIVAFIKNKFN
  soluble on expression in E. coli: not soluble

## MKSCRSCKENPEVQRKRAEKPWRRAPKAKSEVEKHGIGPPDSDSGEEISFPWYNVTGKMLVVGMHVEIKRSDGRIHGAVIAEVKSNGRFMVEWYEKGETKGKESSLEELLTLNPSLQAPKPTPPPQPPQKTLQASTAVNRQNGIHAQSMILDDEDTFLLDHINMIPAKGASANKRPTGAFTQHVPVRMAPPSEKPLPTRRAPSPKEDAAPAPKSTRTTAAFKPDLDSTAITVPKHTARRTVVVAPAPAPVPAPPIANMTSQRAPSPVARVPSPKNVPRSYPQQDVQPSNGNFAFAEMIRNYRAQIDYRPLSMFDGVNENRISVCVRKRPLNKKELTKAEVDVITIPSRDITILHQPQTRVDLTKYLDNQKFRFDYSFDEYANNELVYRFTAAPLVKTVFDNGTATCFAYGQTGSGKTHTMGGDFSGKKQNASMGIYALTARDVFRMLEQPQYRRKDLSVHCAFFEIYGTKTYDLLNDKAELRVLEDKMQKVQVVGLKEEQAHNEQDVLELINKGTLVRTAGTTSANANSSRSHAIFQIILRQGKKVWGKFSLIDLAGNERGQDTRECDRDTRKEGANINTSLLALKECIRGMARNSSHVPFRQSKLTMVLRDSFIGEKSRTVMISMISPGISSSDHTLNTLRYADRVKEMGTDGSGEATPIRDEELFLPPSADKSDEEYDEMVEKQEHRRVAVDHVRNLKDMSEKIIRETTIVLSNEPSAAQKAECLAKLDQLAQIVSNTRVAVENV
  soluble on expression in E. coli: soluble

## FLSTRDNVDELRKIENKSSFVSADNMPEYVKGAFISMEDERFYNHHGFDLKGTTRALFSTISDRDVQGGSTITQQVVKNYFYDNDRSFTRKVKELFVAHRVEKQYNKNEILSFYLNNIYFGDNQYTLEGAANHYFGTTVNKNSTTMSHITVLQSAILASKVNAPSVYNINN
  soluble on expression in E. coli: not soluble

## MTGQSTGTGEYSDFVAVFRDRYEKLAGKLRGRVNHRPTDAIENMGGGSDAALIGMVSDIRSTASGHWLVELEDTNGTFPCLVMKDRPIADLVQQLLMDEVIAVEGTLADDAGILFVDSLYFPDVPRTHNPSTADRHVQAALISDVHVGSQEFMEDAWHRFTDWLHTPEAEHVEYLLIAGDMVEGVGIYPEQDKELDIIDIYDQYRAFSEYLKEVPADMEIRMIPGNHDAVRLAEPQPGFDEELRDIMSAHDAQVHSNPSLVTVEGVTVLMYHGVSLDEVIAELPDEEASYEEPHRAMYQLLKKRHVAPQYGGHTRLAPEDRDYLVMEEVPDVFHTGHVHKLGWGEYHNVVALNSGCWQAQTEFQKSVNIDPDAGFAPILDLDTLEMTVRKFS
  soluble on expression in E. coli: not soluble

## MDDGDTADDIMDATYRALCTHGYADLTMQDIADESDKSKAALHYHYDSKHDLLCAFLEYLYDGFVDRIEDPAGETPHERLLSLIDSVLDKPDDGSEEFGTAILEIRAHAPYEPGFRERLTKFDDYLVDELEVILEDGIADGTFKSDLDADETAQFIVTVLTGAATERVTTGRPVKCTRRMLTEYVETHLLDGQQEVTA
  soluble on expression in E. coli: not soluble

## MGSDKIHHHHHHMMGGEFTLTEREAEYLFRIIDSSINIFRRHQFFLWAQGELQGLLPHGMLICLFDEGNGQAVNIERFSRTDMDEIRFSELCRPDGGIVFRAMSAWSAGKNQPLLVCPNNSHTPTYKRFSNDLKRENLQRIAAHGMFDTNGRTTCFFTFTQISAALSERHAYFLELLMPHMHMALVRMLFHERHHKQGAVGERSRKLITDRETEILRHVQAGKSNHEIAQLLYISPLTVKNHIQKILKKLDVNNRAHAVAKAMALKITL
  soluble on expression in E. coli: not soluble

## MRFSIVSLLHRLFLAGALALAAGAQAAPDPMGPPDKFVLDAATQTIDILKSDQNVKAGNLAHINQVVDAHILPFVNFQKTTRLAAGRYWRQATDTQKAELAKAFRGTLVRTYSGALTKVDNGTTIKLLPFRGDPNADDVVVRSLISQSNSQPVQVDYRLEKTPQGWRIYDMNVEGIWLIENYRNQFAQQINQNGIDGLIQALNQRNQAAALEHHHHHH
  soluble on expression in E. coli: soluble

## MGSDKIHHHHHHMALTQITQTVSPQPTPPELRKYDYDLVIVGGGIVGLTLASALKDSGLNILLIEAKVSSAAVAKGQAYAVHLLSALIYQGIGIWDKILPQIAKYRQVRLSDADYPGVVEFETTDLGTPELGYVAEHQALLEPLQEFVQNCPNVTYLCPAEVVSTNYQQNEVVIAVKIADQLNTIRSKLLVAADGSRSPIRQAAGIKTHGWKYWQSCIVAFVKPEKPHNDTAYERFWPSGPFAILPLPGNRCRIVWTAPHDEAKALCALNDEEFLQELSQRFGKQMGKLELLGDRFVFQVQLMQSDRYVLPRLALVGDAAHNCHPVGGQGLNLGIRDVAALAQVIQKAHQAGEDIGNIRVLKRYESWRQKENLAILGFTDMLDRMFSNQFPPLVFVRRLGLWFLQSVPALKTFMLKLMIGLKGKTPELAKR
  soluble on expression in E. coli: not soluble
